Measurements as given in PMC5973699.
Values belong to the substance of their own block, whether it stands above or below them.

Legend:
[1] = biological target: MabSelect SuRe resin ligand (engineered Protein A; alkaline resistant protein A domain); test: capture on affinity resin
[2] = biological target: GammaBind Plus resin ligand (affinity improved protein G); test: capture on affinity resin

Substance: human IgG1 (pertuzumab) (antibody)
- binding capacity, tip column, 2 pipetting cycles [1]: 37 µg
- binding capacity, tip column, 4 pipetting cycles [1]: 46 µg
- binding capacity, tip column, 6 pipetting cycles (µg human IgG1 per µL of resin) [1]: 52
- binding capacity, tip column, 8 pipetting cycles (µg human IgG1 per µL of resin) [1]: 54
- binding capacity, tip column, 9 pipetting cycles (µg human IgG1 per µL of resin) [1]: 55
- static binding capacity (batch mode) (µg human IgG1 per µL of resin) [1]: 62

Substance: mouse IgG1 (antibody)
- binding capacity (µg mouse IgG1 per µL resin) [1]: 25

- Binding capacity (Batch Mode) (µg rat IgG2a /µL resin) [2]: 15
Substance: rat IgG2a (antibody)
